Laboratory results as given in US20130266536A1, “METHOD OF USE OF STABILIZED PLANT-DERIVED GROWTH FACTOR IN SKIN CARE” (priority 2010, published 2013).

Assay: Stability challenge test of plant-made EGF in formulation 1
Assay type: physicochemical
Settings: reconstituted freeze-dried non-glycosylated EGF in formulation 1; +4° C., RT and +37° C.; up to 3 weeks; gel, FIG. 5
Description: Size markers 11 and 17 kDa in the first lane. […] (Ref.http://www.cellsciences.com/PDF/CRE100.pdf)

Substance: plant-made EGF: purified, reconstituted freeze-dried, non-glycosylated, plant-made EGF in a formulation as in Example 5, formulation 1
- stability of the growth factor: excellent stability
